This data set in a line: protein stability index of a GFP-peptide fusion (GPS, HEK-293T) (PSI 1-6); higher = more stable. As to conditions: c terminus: a fixed tail appended.

± gives the standard deviation.
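Also: 24-mer peptide tiles fused after GFP, lentivirally expressed, FACS-sorted into six equal bins by GFP/DsRed ratio, decoded by Illumina sequencing, PSI is the read-weighted mean bin number.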

With YSYVYQDGLRLLGARARGVAMLGV [SOAT2], the protein stability index is, setting by setting: (treatment: DMSO) 2.55 ± 0.59; (treatment: MLN4924 1 uM, 8 h) 2.25 ± 0.21.

In the case of YVATEAILIALVGATPSYHWDLAE [SLC22A15], the protein stability index (treatment: DMSO) was found to be 3.01 ± 0.39 and the protein stability index (treatment: MLN4924 1 uM, 8 h) worked out at 3.27 ± 0.31.

Consider YVRLVCKDVRAPSRPAVGPPQPGC [ZSWIM9], for which the protein stability index runs as follows: (treatment: DMSO) 2.22 ± 0.23; (treatment: MLN4924 1 uM, 8 h) 2.4 ± 0.27.

Consider YYFIMACDQYSCALTGPVVDIVTG [DHCR7], for which the protein stability index reads like this: (treatment: DMSO) 3.35 ± 0.17; (treatment: MLN4924 1 uM, 8 h) 3.26 ± 0.53.

As for YYYTKVMSELFLHTPSDTGVSFQA [PKD2L1], the protein stability index runs as follows: (treatment: DMSO) 2.74 ± 0.59; (treatment: MLN4924 1 uM, 8 h) 2.67 ± 0.64.
